Assay [1] has as its target T1, B7H3 (human, UniProt Q5ZPR3 29-466, limits assumed).
T1 sequence (looked up): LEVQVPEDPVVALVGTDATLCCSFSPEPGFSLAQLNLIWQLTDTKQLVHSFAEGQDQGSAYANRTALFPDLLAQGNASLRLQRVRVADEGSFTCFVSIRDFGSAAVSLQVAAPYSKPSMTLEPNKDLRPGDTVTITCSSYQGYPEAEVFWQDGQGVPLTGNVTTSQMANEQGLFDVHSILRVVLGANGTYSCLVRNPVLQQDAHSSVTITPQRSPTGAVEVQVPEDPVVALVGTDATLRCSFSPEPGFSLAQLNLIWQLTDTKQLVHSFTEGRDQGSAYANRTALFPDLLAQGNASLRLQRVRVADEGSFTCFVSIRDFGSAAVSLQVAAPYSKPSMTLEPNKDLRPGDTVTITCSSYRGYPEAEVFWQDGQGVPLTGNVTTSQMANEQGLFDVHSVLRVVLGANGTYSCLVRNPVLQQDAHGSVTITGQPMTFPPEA
Put plainly: ELISA or FCM (Example 2).

Assay [2] addresses T2, B7H3 (human, UniProt Q5ZPR3 29-466, limits assumed).
T2 construct: Tumor associated antigen; also called huB7H3
T2 sequence (looked up): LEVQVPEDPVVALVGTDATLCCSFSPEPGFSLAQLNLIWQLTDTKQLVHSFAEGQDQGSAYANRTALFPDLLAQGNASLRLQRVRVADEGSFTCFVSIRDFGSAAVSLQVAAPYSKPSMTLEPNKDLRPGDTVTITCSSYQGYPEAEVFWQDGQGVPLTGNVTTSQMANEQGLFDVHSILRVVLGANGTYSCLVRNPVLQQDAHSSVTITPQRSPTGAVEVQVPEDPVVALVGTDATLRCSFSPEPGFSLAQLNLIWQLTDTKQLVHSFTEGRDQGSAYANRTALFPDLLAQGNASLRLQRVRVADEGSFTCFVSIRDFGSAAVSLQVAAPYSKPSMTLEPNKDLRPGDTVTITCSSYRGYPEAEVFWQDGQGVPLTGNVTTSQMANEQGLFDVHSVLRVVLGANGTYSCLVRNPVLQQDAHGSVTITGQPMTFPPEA
Put plainly: FCM or ELISA. In general terms: ELISA stands for enzyme-linked immunosorbent assay.

B1: Ly2385 (other)
chain 1: QVQLVQSGAEVKKPGASVKVSCKASGYTFTSYVMHWVRQKPGQGLEWIGYINPYNEGTESTDKFKGRATMTSDKSTSTVYMELSSLRSEDTAVYYCASIYYGYEGTYFGVWGQGTLVTVSSASTKGPSVFPLAPSSKSTSGGTAALGCLVKDYFPEPVTVSWNSGALTSGVHTFPAVLQSSGLYSLSSVVTVPSSSLGTQTYICNVNHKPSNTKVDKKVEPKSCGGSEVQLVESGGGLVQPGGSLRLSCAASGFTFSTYAMNWVRQAPGKGLEWVGRIRSKYNNYATYYADSVKGRFTISRDDSKNSLYLQMNSLKTEDTAVYYCVRHGNFGNSYVSWFAYWGQGTLVTVSSGGGGSDKTHTCPPCPAPEAAGPSVFLFPPKPKDTLMISRTPEVTCVVVDVSHEDPEVKFNWYVDGVEVHNAKTKPREEQYNSTYRVVSVLTVLHQDWLNGKEYKCKVSNKALPAPIEKTISKAKGQPREPQVYTLPPSREEMTKNQVSLWCLVKGFYPSDIAVEWESNGQPENNYKTTPPVLDSDGSFFLYSKLTVDKSRWQQGNVFSCSVMHEALHNHYTQKSLSLSPGGGGGSGGGGSGGGGSGGGGSQVQLVQSGAEVKKPGASVKVSCKASGYTFAGFEMHWVRQAPGQGLEWMGAIDPKTGGTDYNQKFKDRVTMTRDTSISTAYMELSRLRSDDTAVYYCARDLGYFDVWGQGTLVTVSS
chain 2: QVQLVQSGAEVKKPGASVKVSCKASGYTFTSYVMHWVRQKPGQGLEWIGYINPYNEGTESTDKFKGRATMTSDKSTSTVYMELSSLRSEDTAVYYCASIYYGYEGTYFGVWGQGTLVTVSSASTKGPSVFPLAPSSKSTSGGTAALGCLVKDYFPEPVTVSWNSGALTSGVHTFPAVLQSSGLYSLSSVVTVPSSSLGTQTYICNVNHKPSNTKVDKKVEPKSCGGSQAVVTQEPSLTVSPGGTVTLTCRSSTGAVTTSNYANWVQQKPGQAPRGLIGGTNKRAPWTPARFSGSLLGGKAALTITGAQAEDEADYYCALWYSNLWVFGGGTKLTVLGGGGSDKTHTCPPCPAPEAAGPSVFLFPPKPKDTLMISRTPEVTCVVVDVSHEDPEVKFNWYVDGVEVHNAKTKPREEQYNSTYRVVSVLTVLHQDWLNGKEYKCKVSNKALPAPIEKTISKAKGQPREPQVYTLPPSREEMTKNQVSLSCAVKGFYPSDIAVEWESNGQPENNYKTTPPVLDSDGSFFLVSKLTVDKSRWQQGNVFSCSVMHEALHNRFTQKSLSLSPGGGGGSGGGGSGGGGSGGGGSDIQMTQSPSSLSASVGDRVTITCRASQDIRSNLNWYQQKPGGAVKLLIYYTSRLHSGVPSRFSGSGSGTDYTLTISSLQPEDFATYFCQQSEKLPRTFGGGTKVEIR
light: EIVLTQSPATLSLSPGERATLSCRASSSVSYMHWYQQKPGQAPRPWIYATSNLASGIPARFSGSRSGTDYTLTISSLEPEDFAVYYCQQWSSNTLTFGGGTKVEIKRTVAAPSVFIFPPSDEQLKSGTASVVCLLNNFYPREAKVQWKVDNALQSGNSQESVTEQDSKDSTYSLSSTLTLSKADYEKHKVYACEVTHQGLSSPVTKSFNRGEC
notes: Tri-specific antibody: B7H3 Fabs, central CD3 Fv, terminal CD137 Fv; Flexible linker is G2S
Consider B1, for which the binding result with B7H3 [1] is listed as “binds”.

B2: Ly2279 (bispecific antibody)
chain 1: not shown
chain 2: QVQLVQSGAEVKKPGASVKVSCKASGYTFTSYVMHWVRQKPGQGLEWIGYINPYNEGTESTDKFKGRATMTSDKSTSTVYMELSSLRSEDTAVYYCASIYYGYEGTYFGVWGQGTLVTVSSASTKGPSVFPLAPSSKSTSGGTAALGCLVKDYFPEPVTVSWNSGALTSGVHTFPAVLQSSGLYSLSSVVTVPSSSLGTQTYICNVNHKPSNTKVDKKVEPKSCGGGGSGGGGSGGGGSGGGGSDIQMTQSPSSVSASVGDRVTITCRASQGIYSWLAWYQQKPGKAPNLLIYTASTLQSGVPSRFSGSGSGTDFTLTISSLQPEDFATYYCQQANIFPLTFGGGTKVEIKGGGGSDKTHTCPPCPAPEAAGPSVFLFPPKPKDTLMISRTPEVTCVVVDVSHEDPEVKFNWYVDGVEVHNAKTKPREEQYNSTYRVVSVLTVLHQDWLNGKEYKCKVSNKALPAPIEKTISKAKGQPREPQVYTLPPSREEMTKNQVSLSCAVKGFYPSDIAVEWESNGQPENNYKTTPPVLDSDGSFFLVSKLTVDKSRWQQGNVFSCSVMHEALHNRFTQKSLSLSPG
light: EIVLTQSPATLSLSPGERATLSCRASSSVSYMHWYQQKPGQAPRPWIYATSNLASGIPARFSGSRSGTDYTLTISSLEPEDFAVYYCQQWSSNTLTFGGGTKVEIKRTVAAPSVFIFPPSDEQLKSGTASVVCLLNNFYPREAKVQWKVDNALQSGNSQESVTEQDSKDSTYSLSSTLTLSKADYEKHKVYACEVTHQGLSSPVTKSFNRGEC
notes: B7H3/CD40: two B7H3 Fabs, central CD40 Fv (TM383)
Take B2: the binding result with B7H3 [2] is recorded as “binds”.

B3: Ly1965 (bispecific antibody)
chain 1: QVQLVQSGAEVKKPGASVKVSCKASGYTFTSYVMHWVRQKPGQGLEWIGYINPYNEGTESTDKFKGRATMTSDKSTSTVYMELSSLRSEDTAVYYCASIYYGYEGTYFGVWGQGTLVTVSSASTKGPSVFPLAPSSKSTSGGTAALGCLVKDYFPEPVTVSWNSGALTSGVHTFPAVLQSSGLYSLSSVVTVPSSSLGTQTYICNVNHKPSNTKVDKKVEPKSCGGGGSGGGGSGGGGSGGGGSEVQLVESGGGLVQPGGSLRLSCAASGFTFSTYAMNWVRQAPGKGLEWVGRIRSKYNNYATYYADSVKGRFTISRDDSKNSLYLQMNSLKTEDTAVYYCVRHGNFGNSYVSWFAYWGQGTLVTVSSGGGGSDKTHTCPPCPAPEAAGPSVFLFPPKPKDTLMISRTPEVTCVVVDVSHEDPEVKFNWYVDGVEVHNAKTKPREEQYNSTYRVVSVLTVLHQDWLNGKEYKCKVSNKALPAPIEKTISKAKGQPREPQVYTLPPSREEMTKNQVSLWCLVKGFYPSDIAVEWESNGQPENNYKTTPPVLDSDGSFFLYSKLTVDKSRWQQGNVFSCSVMHEALHNHYTQKSLSLSPG
chain 2: QVQLVQSGAEVKKPGASVKVSCKASGYTFTSYVMHWVRQKPGQGLEWIGYINPYNEGTESTDKFKGRATMTSDKSTSTVYMELSSLRSEDTAVYYCASIYYGYEGTYFGVWGQGTLVTVSSASTKGPSVFPLAPSSKSTSGGTAALGCLVKDYFPEPVTVSWNSGALTSGVHTFPAVLQSSGLYSLSSVVTVPSSSLGTQTYICNVNHKPSNTKVDKKVEPKSCGGGGSGGGGSGGGGSGGGGSQAVVTQEPSLTVSPGGTVTLTCRSSTGAVTTSNYANWVQQKPGQAPRGLIGGTNKRAPWTPARFSGSLLGGKAALTITGAQAEDEADYYCALWYSNLWVFGGGTKLTVLGGGGSDKTHTCPPCPAPEAAGPSVFLFPPKPKDTLMISRTPEVTCVVVDVSHEDPEVKFNWYVDGVEVHNAKTKPREEQYNSTYRVVSVLTVLHQDWLNGKEYKCKVSNKALPAPIEKTISKAKGQPREPQVYTLPPSREEMTKNQVSLSCAVKGFYPSDIAVEWESNGQPENNYKTTPPVLDSDGSFFLVSKLTVDKSRWQQGNVFSCSVMHEALHNRFTQKSLSLSPG
light: EIVLTQSPATLSLSPGERATLSCRASSSVSYMHWYQQKPGQAPRPWIYATSNLASGIPARFSGSRSGTDYTLTISSLEPEDFAVYYCQQWSSNTLTFGGGTKVEIKRTVAAPSVFIFPPSDEQLKSGTASVVCLLNNFYPREAKVQWKVDNALQSGNSQESVTEQDSKDSTYSLSSTLTLSKADYEKHKVYACEVTHQGLSSPVTKSFNRGEC
notes: B7H3/CD3: two B7H3 Fabs, central CD3 Fv
Regarding B3, the binding result with B7H3 [2] was “binds”.

Values taken from patent US20250388669A1 (published 2025).
